Measured values from patent US11510990B2, “Conjugates of fusion proteins of GLP-1 and FGF21” (BEIJING QL BIOPHARMACEUTICAL CO., LTD., priority 2020, dated 2022).
Positions count from the first letter of the chain named.

B1: Compound 14: GLP-1/FGF21 fusion polypeptide SEQ ID NO: 14 conjugated with Moiety A at 222K (conjugate)
chain: HGEGTFTSDVSSYLEEQAAREFIAWLVRGGGGQEPGQEPGQEPGQEPGQEPHPIPDSSPLLQFGGQVRQRYLYTDDAQQTEAHLEIREDGTVGGAADQSPESLLQLRALRPGVIQILGVRTSRFLCQRPDGALYGSLHFDPEACSFRELLLEDGYNVYQSEAHGLPLHLPGQRSPHRDPAPRGPARFLPLPGLPPALPEPPGILAPQPPDVGSSDPLSLVGKSQGRSPSYES
modifications: Moiety A conjugated at K222
B2: Compound 5: GLP-1/FGF21 fusion polypeptide SEQ ID NO: 5 conjugated with Moiety A at 51K and 222K (conjugate)
chain: HGEGTFTSDVSSYLEEQAAREFIAWLVRGGGGGGGSGGGGSGGGGSGGGGKHPIPDSSPLLQFGGQVRQRYLYTDDAQQTEAHLEIREDGTVGGAADQSPESLLQLRALRPGVIQILGVRTSRFLCQRPDGALYGSLHFDPEACSFRELLLEDGYNVYQSEAHGLPLHLPGQRSPHRDPAPRGPARFLPLPGLPPALPEPPGILAPQPPDVGSSDPLSLVGKSQGRSPSYAS
modifications: Moiety A conjugated at K51 and K222
B3: Compound 22: GLP-1/FGF21 fusion polypeptide SEQ ID NO: 22 conjugated with Moiety A at 51K and 231K (conjugate)
chain: HGEGTFTSDVSSYLEEQAAREFIAWLVRGGGGGGGSGGGGSGGGGSGGGGKHPIPDSSPLLQFGGQVRQRYLYTDDAQQTEAHLEIREDGTVGGAADQSPESLLQLRALRPGVIQILGVRTSRFLCQRPDGALYGSLHFDPEACSFRELLLEDGYNVYQSEAHGLPLHLPGQRSPHRDPAPRGPARFLPLPGLPPALPEPPGILAPQPPDVGSSDPLSLVGGSQGRSPSYK
modifications: Moiety A conjugated at K51 and K231
B4: Compound 13: GLP-1/FGF21 fusion polypeptide SEQ ID NO: 13 conjugated with Moiety A at 222K (conjugate)
chain: B1 chain with Q33A, E34Q, Q37A, E38Q, Q41A, E42Q, Q45A, E46Q, Q49A, E50Q
modifications: Moiety A conjugated at K222
B5: Compound 54: GLP-1/FGF21 fusion polypeptide SEQ ID NO: 151 conjugated with Moiety B at 51C and 231C (conjugate)
chain: B2 chain with R20K, K51C, R107K, R110K, R120K, R173K, K222G, A231C
modifications: Moiety B conjugated at C51 and C231
B6: Compound 2: GLP-1/FGF21 fusion polypeptide SEQ ID NO: 2 conjugated with Moiety A at 20K and 231K (conjugate)
chain: B2 chain with R20K, K51S, K222G, A231K
modifications: Moiety A conjugated at K20 and K231
B7: Compound 21: GLP-1/FGF21 fusion polypeptide SEQ ID NO: 21 conjugated with Moiety A at 51K and 225K (conjugate)
chain: B2 chain with K222G, G225K, A231E
modifications: Moiety A conjugated at K51 and K225
B8: Compound 15: GLP-1/FGF21 fusion polypeptide SEQ ID NO: 15 conjugated with Moiety A at 231K (conjugate)
chain: B2 chain with K51S, K222P, A231K
modifications: Moiety A conjugated at K231
B9: Compound 20: GLP-1/FGF21 fusion polypeptide SEQ ID NO: 20 conjugated with Moiety A at 51K and 221K (conjugate)
chain: B2 chain with G221K, K222P, A231E
modifications: Moiety A conjugated at K51 and K221
B10: Compound 52: GLP-1/FGF21 fusion polypeptide SEQ ID NO: 149 conjugated with Moiety B at 51C and 225C (conjugate)
chain: B2 chain with R20K, K51C, R107K, R110K, R120K, R173K, K222G, G225C, A231E
modifications: Moiety B conjugated at C51 and C225
B11: Compound 12: GLP-1/FGF21 fusion polypeptide SEQ ID NO: 12 conjugated with Moiety A at 225K (conjugate)
chain: B2 chain with K51S, K222G, G225K, A231E
modifications: Moiety A conjugated at K225
B12: Compound 51: GLP-1/FGF21 fusion polypeptide SEQ ID NO: 148 conjugated with Moiety B at 51C and 222C (conjugate)
chain: B2 chain with R20K, K51C, R107K, R110K, R120K, R173K, K222C, A231E
modifications: Moiety B conjugated at C51 and C222
B13: Compound 11: GLP-1/FGF21 fusion polypeptide SEQ ID NO: 11 conjugated with Moiety A at 221K (conjugate)
chain: B2 chain with K51S, G221K, K222P, A231E
modifications: Moiety A conjugated at K221
B14: Compound 50: GLP-1/FGF21 fusion polypeptide SEQ ID NO: 117 conjugated with Moiety A at 51K and 233K (conjugate)
chain: HGEGTFTSDVSSYLEEQAAREFIAWLVRGGGGGGGSGGGGSGGGGSGGGGKHPIPDSSPLLQFGGQVRQRYLYTDDAQQTEAHLEIREDGTVGGAADQSPESLLQLRALRPGVIQILGVRTSRFLCQRPDGALYGSLHFDPEACSFRELLLEDGYNVYQSEAHGLPLHLPGQRSPHRDPAPRGPARFLPLPGLPPALPEPPGILAPQPPDVGSSDPLSLVGGSQGRSPSYESK
modifications: Moiety A conjugated at K51 and K233
B15: Compound 48: GLP-1/FGF21 fusion polypeptide SEQ ID NO: 88 conjugated with Moiety A at 51K and 222K (conjugate)
chain: HGEGTFTSDVSSYLEEQAAREFIAWLVRGGGGAQPGAQPGAQPGAQPGAQKHPIPDSSPLLQFGGQVRQRYLYTDDAQQTEAHLEIREDGTVGGAADQSPESLLQLRALRPGVIQILGVRTSRFLCQRPDGALYGSLHFDPEACSFRELLLEDGYNVYQSEAHGLPLHLPGQRSPHRDPAPRGPARFLPLPGLPPALPEPPGILAPQPPDVGSSDPLSLVGKSQGRSPSYES
modifications: Moiety A conjugated at K51 and K222

Test: Body weight reduction in C57BL/6 mice, daily subcutaneous dosing
Format: in vivo
Details: 30 nmol/kg
Method: FIGS. 1A-1F show in vivo activities of fusion protein conjugates. […] Body weight was measured daily. […] Compared to Vehicle control: ***, p<0.001. All data are expressed as mean values and standard error (SEM).
10 week old male C57BL/6 mice were injected everyday subcutaneously with 30 nmol/kg exemplary fusion protein conjugates for 10 or 14 days (n=5). Body weight was daily monitored for each individual animal. Day 1 and Day 10 (or Day 14) are first day and last day of molecule dosage. % BW loss=100*(BW on Day n-BW on Day 1)/(BW on Day 1). Data are indicated as mean values and standard error (SEM) or pooled values. Statistical analysis was performed by One-way ANOVA. Body weight reduction on Day 11 in Table 5 is calculated by −1*(% BW loss−% BW loss of vehicle group).

| Molecule | BW reduction efficacy compared to Compounds 10 and 13 |
| --- | --- |
| B1 | lower BW reduction efficacy |

Same assay, conditions: 30 nmol/kg, 10-day dosing period (FIGS. 1A-1B)

| Molecule | BW reduction compared to Semaglutide |
| --- | --- |
| B2 | much more enhanced and persistent BW reduction |

Same assay, conditions: male C57BL/6 mice, 30 nmol/kg subcutaneously everyday, Day 11

| Molecule | Body weight reduction at 30 nmol/kg (% reduction compared to vehicle)(Day11) [%] |
| --- | --- |
| Semaglutide [reference compound] | 6.4 |
| B3 | 32.9 |
| B1 | 9.8 |
| B4 | 23.6 |
| B2 | 14.4 |
| B5 | 13.5 |
| B6 | 18.2 |
| B7 | 34.4 |
| B8 | 11.3 |
| B9 | 26.6 |
| B10 | 20.9 |
| B11 | 22.8 |
| B12 | 26.2 |
| B13 | 10.4 |
| B14 | 9.4 |
| B15 | 27.8 |
